Measurements reported in PMC7948426.

Molecular target: NES–Venus–mGsi (nuclear export sequence–Venus–mini G protein mGsi)
Assay: BRET with mini G protein V-mGsi (net BRET pH profile)
Conditions: read off a plot
[1] = 150 mM K+ (no Na+), pH 6.5 point
[2] = 150 mM K+ (no Na+), pH 8.5 point

response [1] [netBRET] | response [2] [netBRET] | response (150 mM Na+, pH 6.5 point) [netBRET] | response (150 mM Na+, pH 8.5 point) [netBRET] | Substance
0.0073 | 0.0037 | 0.006 | 0.0023 | GPR68–Rluc8 (wild type) (from UniProt Q15743) D67N; D282N
0.033 | 0.019 | 0.032 | 0.02 | GPR65–Rluc8 (wild type) (from UniProt Q8IYL9) D60N; D286N
0.032 | 0.023 | 0.032 | 0.013 | GPR4–Rluc8 (wild type) (from UniProt P46093) E145Q
0.063 | 0.052 | 0.06 | 0.034 | GPR65–Rluc8 (wild type) (from UniProt Q8IYL9) E142Q
0.029 | 0.026 | 0.028 | 0.018 | GPR68–Rluc8 (wild type) (from UniProt Q15743) E149Q
0.0057 | 0.0026 | 0.0068 | 0.0022 | GPR4–Rluc8 (wild type) (from UniProt P46093) D63N; D282N
